Laboratory results: US20260191929A1

Biological target: mouse CD117 (stem cell factor receptor, c-Kit) on mouse bone marrow and lung cells (mouse) (UniProt P05532)
Assay: cell-based or functional assay

Sequence of UniProt P05532 (P05532 25-979): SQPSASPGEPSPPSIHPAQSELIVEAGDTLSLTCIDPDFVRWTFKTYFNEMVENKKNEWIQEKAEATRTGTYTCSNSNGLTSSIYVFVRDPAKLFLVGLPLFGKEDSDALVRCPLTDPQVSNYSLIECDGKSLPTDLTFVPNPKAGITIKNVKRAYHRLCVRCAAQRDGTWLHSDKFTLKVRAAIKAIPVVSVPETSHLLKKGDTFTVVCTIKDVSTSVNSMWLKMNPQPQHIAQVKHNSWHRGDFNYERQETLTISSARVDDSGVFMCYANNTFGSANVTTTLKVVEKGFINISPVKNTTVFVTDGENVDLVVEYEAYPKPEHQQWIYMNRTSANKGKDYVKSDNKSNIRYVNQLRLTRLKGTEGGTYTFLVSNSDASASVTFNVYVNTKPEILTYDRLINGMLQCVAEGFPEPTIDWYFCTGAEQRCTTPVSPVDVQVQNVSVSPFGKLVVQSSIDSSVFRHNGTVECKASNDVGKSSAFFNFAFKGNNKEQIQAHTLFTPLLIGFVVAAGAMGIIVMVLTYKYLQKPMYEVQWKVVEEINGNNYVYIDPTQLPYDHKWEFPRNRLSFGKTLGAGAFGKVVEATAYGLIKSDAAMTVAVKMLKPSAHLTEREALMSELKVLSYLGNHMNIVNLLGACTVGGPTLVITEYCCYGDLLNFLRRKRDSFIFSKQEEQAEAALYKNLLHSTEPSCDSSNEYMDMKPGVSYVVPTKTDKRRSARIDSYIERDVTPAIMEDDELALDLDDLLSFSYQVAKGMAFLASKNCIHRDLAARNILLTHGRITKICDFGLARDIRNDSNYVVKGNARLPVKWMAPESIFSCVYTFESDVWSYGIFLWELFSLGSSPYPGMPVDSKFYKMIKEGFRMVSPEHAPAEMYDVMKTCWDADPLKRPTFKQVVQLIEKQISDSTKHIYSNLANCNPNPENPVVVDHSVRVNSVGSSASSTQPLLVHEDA

In the case of “purified rat anti-mouse CD117 (c-kit), clone 2B8 (BioLegend 93235), conjugated to LNP-mRNA (antibody)”, the gene editing (tdTomato) frequency in cKit+ lung cells after in vivo CD117/LNP-Cre is reported as 90%, the luciferase activity normalized to the frequency of antigen positive cells, Lin- cells, relative to CD45/LNP is reported as 700 fold and the luciferase activity normalized to the frequency of antigen positive cells, whole bone marrow (WBM), relative to CD45/LNP is reported as 500 fold.
